Experimental data published in paper PMC9482650, “Quantitative fragmentomics allow affinity mapping of interactomes” (Nature Communications, 2022).

T1: GRIP1_3, Q9Y3R0
T1 sequence (Q9Y3R0 247-346, limits assumed, looked up): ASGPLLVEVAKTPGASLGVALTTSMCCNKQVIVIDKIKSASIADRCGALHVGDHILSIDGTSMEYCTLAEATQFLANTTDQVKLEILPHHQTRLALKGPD

T2: NHERF3_4, Q5T2W1
T2 sequence (Q5T2W1 373-468, limits assumed, looked up): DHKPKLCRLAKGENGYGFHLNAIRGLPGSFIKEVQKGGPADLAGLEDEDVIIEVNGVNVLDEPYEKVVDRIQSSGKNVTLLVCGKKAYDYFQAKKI

T3: DLG3_1, Q92796
T3 sequence (Q92796 125-227, limits assumed, looked up): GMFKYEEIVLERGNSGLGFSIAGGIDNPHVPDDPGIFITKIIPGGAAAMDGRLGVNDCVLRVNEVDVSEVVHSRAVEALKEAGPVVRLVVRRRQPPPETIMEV

T4: SYNJ2BP, P57105
T4 sequence (P57105 8-110, limits assumed, looked up): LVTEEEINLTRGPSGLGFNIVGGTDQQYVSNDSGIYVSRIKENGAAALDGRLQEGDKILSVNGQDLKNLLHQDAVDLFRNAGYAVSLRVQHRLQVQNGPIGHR

T5: PCLO, Q9Y6V0
T5 sequence (Q9Y6V0 4491-4600, limits assumed, looked up): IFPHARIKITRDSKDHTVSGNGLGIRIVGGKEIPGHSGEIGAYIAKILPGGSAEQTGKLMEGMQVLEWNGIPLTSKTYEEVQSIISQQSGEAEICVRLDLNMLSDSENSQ

T6: GRIP1_7, Q9Y3R0
T6 sequence (Q9Y3R0 999-1096, limits assumed, looked up): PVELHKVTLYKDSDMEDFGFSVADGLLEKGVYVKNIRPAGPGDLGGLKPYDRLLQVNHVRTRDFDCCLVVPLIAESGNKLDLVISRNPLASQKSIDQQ

T7: SNTA1, Q13424
T7 sequence (Q13424 82-180, limits assumed, looked up): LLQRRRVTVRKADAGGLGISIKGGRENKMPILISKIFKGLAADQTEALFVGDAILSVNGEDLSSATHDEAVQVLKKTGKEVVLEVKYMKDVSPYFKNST

T8: TX1BP3, O14907
T8 sequence (O14907 10-122, limits assumed, looked up): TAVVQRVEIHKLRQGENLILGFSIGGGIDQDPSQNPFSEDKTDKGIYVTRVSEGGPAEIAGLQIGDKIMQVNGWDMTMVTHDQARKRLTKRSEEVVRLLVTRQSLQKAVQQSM

T9: RHPN1, Q8TCX5
T9 sequence (Q8TCX5 508-602, limits assumed, looked up): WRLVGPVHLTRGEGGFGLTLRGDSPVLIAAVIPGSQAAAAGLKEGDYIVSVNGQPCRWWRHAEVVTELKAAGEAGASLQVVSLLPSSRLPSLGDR

T10: MPP7, Q5T2T1
T10 sequence (Q5T2T1 134-230, limits assumed, looked up): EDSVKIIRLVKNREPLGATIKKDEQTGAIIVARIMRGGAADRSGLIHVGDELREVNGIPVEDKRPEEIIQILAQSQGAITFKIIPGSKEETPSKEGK

T11: NHERF3_3, Q5T2W1
T11 sequence (Q5T2W1 238-333, limits assumed, looked up): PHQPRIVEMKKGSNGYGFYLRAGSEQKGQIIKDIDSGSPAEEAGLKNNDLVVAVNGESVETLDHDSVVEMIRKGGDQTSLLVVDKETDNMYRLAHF

T12: DVL3, Q92997
T12 sequence (Q92997 244-331, limits assumed, looked up): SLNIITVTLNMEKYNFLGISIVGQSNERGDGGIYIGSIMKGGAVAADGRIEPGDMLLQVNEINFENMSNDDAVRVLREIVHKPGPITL

T13: LRRC7, Q96NW7
T13 sequence (Q96NW7 1440-1537, limits assumed, looked up): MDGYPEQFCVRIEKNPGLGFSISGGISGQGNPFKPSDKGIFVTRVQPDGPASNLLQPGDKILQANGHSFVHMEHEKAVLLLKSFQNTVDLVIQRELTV


Columns and labels:
Test in all cases: holdup assay
Set-up in all cases: key: below the threshold = too weak to quantify, mostly under pKd 3.1 to 4
Settings in all cases: plain residues with an end cap or a label only (N-terminal biotin on a linker: ado-ado)
HTRA1, Q92743 = target: HTRA1, Q92743
GRIP1_3, Q9Y3R0 = target: T1, GRIP1_3, Q9Y3R0
NHERF3_4, Q5T2W1 = target: T2, NHERF3_4, Q5T2W1
DLG3_1, Q92796 = target: T3, DLG3_1, Q92796
SYNJ2BP, P57105 = target: T4, SYNJ2BP, P57105
GRID2IP_2, A4D2P6 = target: GRID2IP_2, A4D2P6
PCLO, Q9Y6V0 = target: T5, PCLO, Q9Y6V0
GRIP2_7, Q9C0E4 = target: GRIP2_7, Q9C0E4
GRIP1_7, Q9Y3R0 = target: T6, GRIP1_7, Q9Y3R0
SNTA1, Q13424 = target: T7, SNTA1, Q13424
PDZRN4_1, Q6ZMN7 = target: PDZRN4_1, Q6ZMN7
MAST1, Q9Y2H9 = target: MAST1, Q9Y2H9
LIMK2, P53671 = target: LIMK2, P53671
MAGI2_4, Q86UL8 = target: MAGI2_4, Q86UL8
TX1BP3, O14907 = target: T8, TX1BP3, O14907
RHPN1, Q8TCX5 = target: T9, RHPN1, Q8TCX5
MPP7, Q5T2T1 = target: T10, MPP7, Q5T2T1
NHERF3_3, Q5T2W1 = target: T11, NHERF3_3, Q5T2W1
DVL3, Q92997 = target: T12, DVL3, Q92997
DLG2_3, Q15700 = target: DLG2_3, Q15700
DLG1_3, Q12959 = target: DLG1_3, Q12959
LRRC7, Q96NW7 = target: T13, LRRC7, Q96NW7
Inadl_5, Q8NI35 = target: Inadl_5, Q8NI35
Sequence of Inadl_5, Q8NI35 (Q8NI35 673-780): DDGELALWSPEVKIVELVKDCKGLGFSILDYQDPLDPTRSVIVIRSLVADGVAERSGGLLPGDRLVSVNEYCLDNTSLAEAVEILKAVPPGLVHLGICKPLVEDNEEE

Sequence of MAST1, Q9Y2H9 (Q9Y2H9 962-1065): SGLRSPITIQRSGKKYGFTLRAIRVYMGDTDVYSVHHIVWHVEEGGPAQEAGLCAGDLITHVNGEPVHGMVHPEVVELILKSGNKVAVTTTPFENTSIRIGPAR
Sequence of MAGI2_4, Q86UL8 (Q86UL8 772-865): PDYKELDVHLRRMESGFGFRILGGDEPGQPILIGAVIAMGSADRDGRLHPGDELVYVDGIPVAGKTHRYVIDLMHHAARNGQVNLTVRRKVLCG
Sequence of GRIP2_7, Q9C0E4 (Q9C0E4 934-1023): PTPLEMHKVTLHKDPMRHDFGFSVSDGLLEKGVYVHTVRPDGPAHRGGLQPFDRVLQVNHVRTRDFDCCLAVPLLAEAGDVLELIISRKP
Sequence of DLG1_3, Q12959 (Q12959 457-571): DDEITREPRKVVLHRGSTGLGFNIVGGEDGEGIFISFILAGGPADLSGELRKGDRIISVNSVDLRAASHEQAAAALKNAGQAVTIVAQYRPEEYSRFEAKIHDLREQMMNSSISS
Sequence of GRID2IP_2, A4D2P6 (A4D2P6 272-370): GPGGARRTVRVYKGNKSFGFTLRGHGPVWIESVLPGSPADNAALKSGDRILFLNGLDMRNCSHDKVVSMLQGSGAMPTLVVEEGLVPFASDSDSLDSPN
Sequence of HTRA1, Q92743 (Q92743 360-477): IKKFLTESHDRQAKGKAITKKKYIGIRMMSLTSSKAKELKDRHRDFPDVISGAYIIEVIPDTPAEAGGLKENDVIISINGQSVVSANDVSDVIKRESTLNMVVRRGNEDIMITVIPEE
Sequence of PDZRN4_1, Q6ZMN7 (Q6ZMN7 213-318): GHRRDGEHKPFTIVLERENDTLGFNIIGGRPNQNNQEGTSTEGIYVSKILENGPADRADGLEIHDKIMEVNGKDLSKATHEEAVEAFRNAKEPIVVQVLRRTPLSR
Sequence of LIMK2, P53671 (P53671 143-248): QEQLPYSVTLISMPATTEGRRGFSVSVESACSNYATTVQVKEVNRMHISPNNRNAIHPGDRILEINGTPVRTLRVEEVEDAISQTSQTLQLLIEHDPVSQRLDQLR

Binder	pKd (HTRA1, Q92743)	pKd (GRIP1_3, Q9Y3R0)	pKd (NHERF3_4, Q5T2W1)	pKd (DLG3_1, Q92796)	pKd (SYNJ2BP, P57105)	pKd (GRID2IP_2, A4D2P6)	pKd (PCLO, Q9Y6V0)	pKd (GRIP2_7, Q9C0E4)	pKd (GRIP1_7, Q9Y3R0)	pKd (SNTA1, Q13424)	pKd (PDZRN4_1, Q6ZMN7)	pKd (MAST1, Q9Y2H9)	pKd (LIMK2, P53671)	pKd (MAGI2_4, Q86UL8)	pKd (TX1BP3, O14907)	pKd (RHPN1, Q8TCX5)	pKd (MPP7, Q5T2T1)	pKd (NHERF3_3, Q5T2W1)	pKd (DVL3, Q92997)	pKd (DLG2_3, Q15700)	also measured
NKSEPFLTWL [WWTR1, Q9GZV5]	4.91	below the threshold	4.15	below the threshold	4.52	4.65	below the threshold	4.21	below the threshold	below the threshold	4.27	4.25	below the threshold	3.85	4.49	4.64	3.8	4.12	4.54	below the threshold	pKd (DLG1_3, Q12959): below the threshold; pKd (LRRC7, Q96NW7): 4.31; pKd (Inadl_5, Q8NI35): below the threshold
QLGSPTADLA [SIPA1, Q96FS4]	below the threshold	below the threshold	below the threshold	below the threshold	below the threshold	below the threshold	below the threshold	below the threshold	below the threshold	below the threshold	below the threshold	3.84	below the threshold	below the threshold	below the threshold	below the threshold	below the threshold	below the threshold	below the threshold	3.57	pKd (DLG1_3, Q12959): below the threshold; pKd (LRRC7, Q96NW7): below the threshold; pKd (Inadl_5, Q8NI35): below the threshold
PSVYSRSQYV [CLDN8, P56748]	5.03	below the threshold	4.13	below the threshold	below the threshold	3.56	below the threshold	3.51	below the threshold	below the threshold	below the threshold	3.95	below the threshold	3.62	below the threshold	below the threshold	below the threshold	below the threshold	3.63	below the threshold	pKd (DLG1_3, Q12959): below the threshold; pKd (LRRC7, Q96NW7): below the threshold; pKd (Inadl_5, Q8NI35): 4.31
GDSSRKEYFI [GYPC, P04921]	4.74	below the threshold	below the threshold	below the threshold	below the threshold	below the threshold	below the threshold	5.33	3.76	below the threshold	below the threshold	below the threshold	below the threshold	below the threshold	below the threshold	below the threshold	5.18	below the threshold	4.34	3.84	pKd (DLG1_3, Q12959): below the threshold; pKd (LRRC7, Q96NW7): below the threshold; pKd (Inadl_5, Q8NI35): 5.16
SRPHTNETSL [MCC, P23508]	below the threshold	below the threshold	below the threshold	below the threshold	4.84	4.21	below the threshold	below the threshold	below the threshold	4.47	5.22	4.96	below the threshold	below the threshold	4.12	4.64	below the threshold	below the threshold	below the threshold	3.95	pKd (DLG1_3, Q12959): 3.73; pKd (LRRC7, Q96NW7): below the threshold; pKd (Inadl_5, Q8NI35): below the threshold
GSQSQVETEA [FKBP4, Q02790]	3.85	below the threshold	3.73	below the threshold	below the threshold	3.68	below the threshold	below the threshold	below the threshold	below the threshold	below the threshold	3.96	below the threshold	below the threshold	below the threshold	3.77	below the threshold	below the threshold	below the threshold	3.82	pKd (DLG1_3, Q12959): below the threshold; pKd (LRRC7, Q96NW7): below the threshold; pKd (Inadl_5, Q8NI35): below the threshold
